This is an account of results in patent US20200317768A1 (published 2020).

Holding throughout (experiment): SPR (BIACORE), captured antibody, FcgR as analyte
In general terms: Surface plasmon resonance follows binding to a sensor surface in real time, without labels.

Test [1] addresses T1, human FcγRIIaH extracellular domain, His-tagged (human, UniProt P12318 34-217).
T1 construct: also called human FcγRIIa (type H); FcgRIIaH; not shown: C-terminal His-tag
T1 sequence: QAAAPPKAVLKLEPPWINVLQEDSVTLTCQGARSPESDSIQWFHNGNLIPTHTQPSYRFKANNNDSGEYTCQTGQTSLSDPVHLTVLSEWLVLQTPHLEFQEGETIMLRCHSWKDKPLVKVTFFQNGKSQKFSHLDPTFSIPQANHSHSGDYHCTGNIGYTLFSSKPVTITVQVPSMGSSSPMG

Test [2] concerns the target T2, human FcγRIIaR extracellular domain, His-tagged (human, UniProt P12318 34-217).
T2 construct: also called human FcγRIIa (type R); FcgRIIaR; not shown: C-terminal His-tag
T2 chain: T1 sequence with H134R

Test [3] has as its target T3, cynomolgus monkey FcγRIIa2 extracellular domain, His-tagged (cynomolgus monkey).
T3 construct: also called cyno FcγRIIa2; cynoFcgRIIa2; not shown: C-terminal His-tag
T3 chain: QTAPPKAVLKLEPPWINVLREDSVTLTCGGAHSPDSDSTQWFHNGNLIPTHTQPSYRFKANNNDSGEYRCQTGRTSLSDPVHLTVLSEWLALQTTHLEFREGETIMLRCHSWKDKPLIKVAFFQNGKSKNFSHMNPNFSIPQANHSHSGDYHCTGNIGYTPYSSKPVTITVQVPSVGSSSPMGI

Test [4] concerns the target T4, human FcγRIIb extracellular domain, His-tagged (human, UniProt P31994 43-217).
T4 construct: also called FcgRIIb (human); not shown: C-terminal His-tag
T4 sequence: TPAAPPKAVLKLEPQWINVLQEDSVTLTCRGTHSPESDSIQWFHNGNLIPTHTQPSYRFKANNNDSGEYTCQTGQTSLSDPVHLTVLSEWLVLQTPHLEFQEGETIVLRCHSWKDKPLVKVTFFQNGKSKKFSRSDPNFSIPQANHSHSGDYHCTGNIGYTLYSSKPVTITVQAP

In test [5] the target is T5, cynomolgus monkey FcγRIIb extracellular domain, His-tagged (cynomolgus monkey).
T5 construct: also called cyno FcγRIIb; cynoFcγRIIb; not shown: C-terminal His-tag
T5 chain: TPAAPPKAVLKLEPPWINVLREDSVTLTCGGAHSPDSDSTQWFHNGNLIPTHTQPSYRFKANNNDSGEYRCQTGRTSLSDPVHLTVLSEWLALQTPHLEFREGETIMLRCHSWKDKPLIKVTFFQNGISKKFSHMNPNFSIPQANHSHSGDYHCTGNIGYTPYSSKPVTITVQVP

Test [6] addresses T6, human FcγRIIIaV extracellular domain, His-tagged (human, UniProt P08637 17-208).
T6 construct: also called FcgRIIIaV; not shown: C-terminal His-tag

Test [7] has as its target T7, cynomolgus monkey FcγRIIIaS extracellular domain, His-tagged (cynomolgus monkey, UniProt Q8SPW2 21-206 at identity 1.00)).
T7 construct: also called cyno FcγRIIIaS; cynoFcγRIIIaS; not shown: C-terminal His-tag
T7 chain: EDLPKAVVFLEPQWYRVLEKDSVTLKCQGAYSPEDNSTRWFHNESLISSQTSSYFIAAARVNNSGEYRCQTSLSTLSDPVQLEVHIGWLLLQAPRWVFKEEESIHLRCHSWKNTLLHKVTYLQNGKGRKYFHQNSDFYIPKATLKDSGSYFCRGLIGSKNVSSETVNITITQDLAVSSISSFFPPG

For test [8], the target named is T8, cynomolgus monkey FcγRIIa1 extracellular domain, His-tagged (cynomolgus monkey).
T8 construct: also called cyno FcγRIIa1; cynoFcgRIIa1; not shown: C-terminal His-tag
T8 chain: T3 chain with T95P, A121T, K127I, S128A, N130K, N135D, Q142R

Numbering of substitutions follows the chain as printed.

T6 sequence (P08637 17-208 F176V): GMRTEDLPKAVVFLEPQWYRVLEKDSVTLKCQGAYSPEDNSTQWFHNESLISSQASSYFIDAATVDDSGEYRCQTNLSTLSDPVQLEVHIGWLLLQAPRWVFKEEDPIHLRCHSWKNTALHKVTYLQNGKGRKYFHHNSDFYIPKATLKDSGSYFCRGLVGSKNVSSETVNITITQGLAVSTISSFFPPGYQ

B1: M103205H795-MY465/M103202L889-SK1 (antibody, human IgG1, kappa)
heavy: QVTLKESGPVLVKPTETLTLTCTVSGIDLSHDDISWVRQAPGKGLEWVGIISYAGSTYYASWAKGRLTISKDTSKNQVVLTMTNMDPVDTATYYCARGVPAYSHGGDLWGQGTLVTVSSASTKGPSVFPLAPSSKSTSGGTAALGCLVKDYFPEPVTVSWNSGALTSGVHTFPAVLQSSGLYSLSSVVTVPSSSLGTQTYICNVNHKPSNTKVDKKVEPKSCDKTHTCPPCPKPELLTGPSVFLFPPKPKDTLMISRTPEVTCVVVDVSDEDPEVKFNWYVDGVEVHNAKTKPREEQYNSTYRVVSVLTVLHQDWLNGKEYKCKVSNKALPKPIEKTISKAKGQPREPQVYTLPPSREEMTKNQVSLTCLVKGFYPSDIAVEWESNGQPENNYKTTPPVLDSDGSFFLYSKLTVDKSRWQQGNVFSCSVMHEALHNHYTQKSLSLSP
light: DIVMTQSPATLSLSPGERATLSCTSSQSVYHANWLSWFQQKPGQPPKLLIYWASTLAYGVPSRFSGSGSGTDFTLTISSLQPEDAATYYCAGGYGGGRYAFGQGTKVEIKRTVAAPSVFIFPPSDEQLKSGTASVVCLLNNFYPREAKVQWKVDNALQSGNSQESVTEQDSKDSTYSLSSTLTLSKADYEKHKVYACEVTHQGLSSPVTKSFNRGEC
notes: copies: 2 + 2
For B1, the Kd came to 250 nM in test [1]; 600 nM in test [2]; 2800 nM in test [3]; 2800 nM in test [4]; 630 nM in test [5]; 5500 nM in test [6]. For the same molecule, the Kd in test [7] turned out to be 1900 nM; in test [8] it was 2000 nM.

B2: M103205H795-MY470/M103202L889-SK1 (antibody, human IgG1, kappa)
heavy: B1 heavy with K233Q
light: B1 light
notes: copies: 2 + 2
Take B2: the Kd in test [1] came to 220 nM; in test [2] it was 470 nM; in test [3] it was 1800 nM; in test [4] it was 2700 nM; in test [5], 550 nM; in test [6] it was 5100 nM. The Kd in test [7] was found to be 1700 nM; in test [8] it was 2200 nM.

B3: M103205H795-MY474/M103202L889-SK1 (antibody, human IgG1, kappa)
heavy: B1 heavy with K233V
light: B1 light
notes: copies: 2 + 2
Regarding B3, the Kd in test [1] amounted to 170 nM; in test [2] it was 340 nM; in test [3], 1800 nM; in test [4], 2000 nM; in test [5], 500 nM; in test [6], 4600 nM. Moreover, the Kd in test [7] came out at 1600 nM; in test [8], 2000 nM.

B4: M103205H795-MY472/M103202L889-SK1 (antibody, human IgG1, kappa)
heavy: B1 heavy with K233S
light: B1 light
notes: copies: 2 + 2
Regarding B4, the Kd in test [1] came out at 250 nM; in test [2] it was 490 nM; in test [3], 2100 nM; in test [4], 2500 nM; in test [5], 660 nM; in test [6] it was 6300 nM. The Kd worked out at 2500 nM in test [7] and 2400 nM in test [8].

B5: M103205H795-MY469/M103202L889-SK1 (antibody, human IgG1, kappa)
heavy: B1 heavy with K233P
light: B1 light
notes: copies: 2 + 2
As to B5, the Kd in test [1] is 200 nM; in test [2], 430 nM; in test [3] it was 2100 nM; in test [4], 2400 nM; in test [5] it was 610 nM; in test [6], 5900 nM. In addition, the Kd in test [7] and in test [8] was 2200 nM throughout.

B6: M103205H795-MY475/M103202L889-SK1 (antibody, human IgG1, kappa)
heavy: B1 heavy with K233W
light: B1 light
notes: copies: 2 + 2
For the molecule B6, the Kd was found to be 90 nM in test [1]; 210 nM in test [2]; 1000 nM in test [3]; 1100 nM in test [4]; 270 nM in test [5]; 5000 nM in test [6]. For the same molecule, the Kd amounted to 1700 nM in test [7] and 1000 nM in test [8].

B7: M103205H795-MY473/M103202L889-SK1 (antibody, human IgG1, kappa)
heavy: B1 heavy with K233T
light: B1 light
notes: copies: 2 + 2
Turning to B7, the Kd came to 220 nM in test [1]; 490 nM in test [2]; 2600 nM in test [3]; 2200 nM in test [4]; 580 nM in test [5]; 5200 nM in test [6]. Moreover, the Kd in test [7] was 1700 nM; in test [8], 1600 nM.

B8: M103205H795-MY467/M103202L889-SK1 (antibody, human IgG1, kappa)
heavy: B1 heavy with K233M
light: B1 light
notes: copies: 2 + 2
As for B8, the Kd was 180 nM in test [1]; 360 nM in test [2]; 1900 nM in test [3]; 2000 nM in test [4]; 510 nM in test [5]; 4800 nM in test [6]. Also, the Kd in test [7] was 1700 nM; in test [8], 1900 nM.

B9: M103205H795-MY471/M103202L889-SK1 (antibody, human IgG1, kappa)
heavy: B1 heavy with K233R
light: B1 light
notes: copies: 2 + 2
As to B9, the Kd came to 230 nM in test [1]; 470 nM in test [2]; 2100 nM in test [3]; 2800 nM in test [4]; 700 nM in test [5]; 5300 nM in test [6]. Further, the Kd in test [7] amounted to 1800 nM; in test [8] it was 2600 nM.

B10: M103205H795-MY468/M103202L889-SK1 (antibody, human IgG1, kappa)
heavy: B1 heavy with K233N
light: B1 light
notes: copies: 2 + 2
Take B10: the dissociation constant (Kd) in test [1] worked out at 280 nM; in test [2] it was 470 nM; in test [3], 2500 nM; in test [4], 2600 nM; in test [5], 650 nM; in test [6], 6800 nM. Moreover, the results for the Kd in test [7] and in test [8] were 2300 nM and 2800 nM, respectively.

B11: M103205H795-MY466/M103202L889-SK1 (antibody, human IgG1, kappa)
heavy: B1 heavy with K233L
light: B1 light
notes: copies: 2 + 2
Turning to B11, the Kd stood at 170 nM in test [1]; 280 nM in test [2]; 1800 nM in test [3]; 1400 nM in test [4]; 510 nM in test [5]; 4300 nM in test [6]. For the same molecule, the Kd in test [7] was 1800 nM; in test [8], 1900 nM.

B12: M103205H795-MY476/M103202L889-SK1 (antibody, human IgG1, kappa)
heavy: B1 heavy with K233Y
light: B1 light
notes: copies: 2 + 2
With B12, the Kd was 140 nM in test [1]; 250 nM in test [2]; 1300 nM in test [3]; 1200 nM in test [4]; 590 nM in test [5]; 5500 nM in test [6]. Further, the Kd in test [7] turned out to be 2000 nM; in test [8], 1400 nM.

Usually Kd stands for a measure of binding affinity in units of concentration.
